# Measured values taken from paper PMC7966800, “Adiponectin-expressing Treg facilitate T lymphocyte development in thymic nurse cell complexes” (Communications Biology, 2021).
# “And” between values parts separate entries of the source, which are not always exact repeats. Identical values can stand only once.
# Molecular target: the molecule itself
# Assay: non-reducing SDS-PAGE with Western blotting; thymus lysate of WT mice; non-reducing SDS-PAGE, polyclonal antibody to murine adiponectin
protein,measurement,value
"Adiponectin (natural protein, mouse (endogenous in thymus), UniProt Q60994 18-247, looked up, adiponectin, mouse, endogenous protein of thymus and thymic nurse cell (TNC) complexes; found as trimer, hexamer and HMW oligomers; Endogenous secreted glycoprotein; detected with a polyclonal antibody against murine adiponectin; also called Adn; ADIPOQ; source: endogenous, thymus tissue and TNC complexes of wild-type mice, in lysate) EDDVTTTEELAPALVPPPKGTCAGWMAGIPGHPGHNGTPGRDGRDGTPGEKGEKGDAGLLGPKGETGDVGMTGAEGPRGFPGTPGRKGEPGEAAYVYRSAFSVGLETRVTVPNVPIRFTKIFYNQQNHYDGSTGKFYCNIPGLYYFSYHITVYMKDVKVSLFKKDKAVLFTYDQYQEKNVDQASGSVLLHLEVGDQVWLQVYGDGDHNGLYADNVNDSTFTGFLLYHDTN",stoichiometry N,3 and 6
